Measurements reported in publication PMC7738170.

How the values were obtained:
[1] = molecular target: T1, 6xHis-DnaA (Mtb) (Mycobacterium tuberculosis) (UniProt P9WNW3); assay: EMSA
T1 sequence: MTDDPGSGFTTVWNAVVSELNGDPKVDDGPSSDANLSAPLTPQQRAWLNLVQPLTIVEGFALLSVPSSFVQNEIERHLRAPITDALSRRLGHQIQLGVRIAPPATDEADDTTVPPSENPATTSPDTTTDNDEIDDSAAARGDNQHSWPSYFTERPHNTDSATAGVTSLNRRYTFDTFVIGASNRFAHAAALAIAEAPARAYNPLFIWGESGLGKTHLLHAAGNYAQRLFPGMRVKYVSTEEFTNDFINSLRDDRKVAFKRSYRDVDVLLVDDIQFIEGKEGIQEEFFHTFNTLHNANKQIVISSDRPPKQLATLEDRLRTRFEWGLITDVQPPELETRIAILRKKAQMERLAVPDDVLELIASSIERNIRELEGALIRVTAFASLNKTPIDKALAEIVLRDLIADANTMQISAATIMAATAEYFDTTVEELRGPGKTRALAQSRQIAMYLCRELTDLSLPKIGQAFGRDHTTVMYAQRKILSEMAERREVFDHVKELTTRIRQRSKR

[2] = tested on: 6xHis-DnaA (Mtb) (Mycobacterium tuberculosis); assay: EMSA

Substance | binding [1] | Kd [2] [µM]
CCCTACACGACGCTCTTCCGACCCTCTCACCACTGCAGACAAAGTTATCCACAGACGCTATCAACAGTGGGGATGAATCACATGCGTGTGATTGAGTGACCAAAAGGTTGCTGGCACAGTAACGACCCGACCAGAATATGAATTCATTCTATCGGCGGCG (double strand) [Rv0010c-Rv0011c intergenic fragment] | binds | 
oriC fragment |  | 0.07
